Measurements as given in patent publication US20260241018A1 (BIOCYTOGEN PHARMACEUTICALS BEIJING, published 2026).

Legend:
[1] = molecular target: T1, mouse 5T4 expressed on CHO-S cells (CHO-m5T4 cells) (mouse, UniProt Q9Z0L0 32-361); test: flow cytometry, CHO-m5T4 cells
T1 sequence: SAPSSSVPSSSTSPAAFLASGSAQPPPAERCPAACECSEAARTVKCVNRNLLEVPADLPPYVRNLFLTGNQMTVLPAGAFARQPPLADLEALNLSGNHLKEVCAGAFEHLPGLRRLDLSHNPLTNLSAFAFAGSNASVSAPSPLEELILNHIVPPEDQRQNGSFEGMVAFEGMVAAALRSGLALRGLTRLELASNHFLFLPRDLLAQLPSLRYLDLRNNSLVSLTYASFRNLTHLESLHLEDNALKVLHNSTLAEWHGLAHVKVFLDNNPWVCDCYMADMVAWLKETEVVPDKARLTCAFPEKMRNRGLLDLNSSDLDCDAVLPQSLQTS
Procedure: (§1) CHO-h5T4 cells, CHO-m5T4 cells, CHO-fas5T4 cells or CHO-d5T4 cells were transferred to a 96-well plate at a density of 2×10⁵ cells/well respectively. The anti-5T4 antibodies were added to the 96-well plate, and incubated at 4° C. for 30 min. Then, the cells were incubated with the secondary antibody anti-hlgG-Fc-Alex Flour 647 (RL1-H) (Jackson ImmunoResearch Laboratories, Inc., Cat #: 109-606-170) at 4° C. in the dark for 15 minutes before flow cytometry analysis.

[2] = molecular target: T2, dog 5T4 expressed on CHO-S cells (CHO-d5T4 cells) (dog); test: flow cytometry, CHO-d5T4 cells
T2 chain: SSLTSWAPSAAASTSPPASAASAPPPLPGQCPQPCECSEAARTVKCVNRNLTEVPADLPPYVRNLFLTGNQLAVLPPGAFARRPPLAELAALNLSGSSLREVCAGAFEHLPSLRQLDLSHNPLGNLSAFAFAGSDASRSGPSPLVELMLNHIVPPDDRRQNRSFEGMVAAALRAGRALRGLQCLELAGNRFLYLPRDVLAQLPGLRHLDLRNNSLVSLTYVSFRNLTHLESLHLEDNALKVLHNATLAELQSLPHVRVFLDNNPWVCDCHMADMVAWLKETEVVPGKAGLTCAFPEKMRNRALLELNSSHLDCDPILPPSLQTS
Procedure: as §1

h5T4-His protein [3] = molecular target: T3, h5T4-His protein (human, UniProt Q13641 32-355, limits assumed); test: epitope binding assay, h5T4-His captured; binder = analyte 2; competitor (analyte 1): 32G8
T3 construct: also called His-tagged human 5T4 protein; not shown: His tag
T3 sequence (looked up): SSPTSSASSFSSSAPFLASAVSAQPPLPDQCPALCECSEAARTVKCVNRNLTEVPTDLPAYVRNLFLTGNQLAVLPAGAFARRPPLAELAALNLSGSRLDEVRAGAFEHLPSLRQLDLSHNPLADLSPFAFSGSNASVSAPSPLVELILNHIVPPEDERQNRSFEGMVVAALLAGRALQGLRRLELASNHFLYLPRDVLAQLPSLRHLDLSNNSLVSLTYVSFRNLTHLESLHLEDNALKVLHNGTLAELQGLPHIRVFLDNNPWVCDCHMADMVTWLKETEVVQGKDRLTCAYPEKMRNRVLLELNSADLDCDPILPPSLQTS
Procedure: (§2) Epitope binding assays were performed using ForteBio Octet system to determine whether two anti-5T4 antibodies target the same or overlapping epitopes. 1×HBS-EP+buffer (10 mM 4-(2-hydroxyethyl)-1-piperazineethanesulfonic acid (HEPES), 150 mM NaCl, 3 mM ethylenediaminetetraacetic acid (EDTA) and 0.05% P20, pH7.4) diluted from HBS-EP+buffer (10×) was used as the running buffer throughout the experiment. About 50 RU of h5T4-His protein was captured at a flow rate of 10 μL/min, and 200 nM of the tested antibody was injected at a flow rate of 30 μL/min to bind the ligand. Another comparison antibody was injected under the same conditions to determine whether the binding of different antibodies interfered with each other. The binding time was 180 s for each antibody.
(§3) The binding value of each antibody was obtained using Data Analysis HT 12.0. To quantify the interference of one antibody binding to another, a binding ratio was calculated to compare each pair of antibodies. The binding ratio is defined as the binding value of the second antibody (analyte 2), divided by the binding value of the first antibody (analyte 1). […] In general, antibody pairs that interfere with each other have the same or overlapping epitopes.

h5T4-His protein [4] = molecular target: T3, h5T4-His protein; test: epitope binding assay, h5T4-His captured; binder = analyte 2; competitor (analyte 1): 35C6
Procedure: as §2, §3

[5] = molecular target: T4, human 5T4 expressed on CHO-S cells (CHO-h5T4 cells) (human, UniProt Q13641 32-355); test: flow cytometry, CHO-h5T4 cells
T4 sequence: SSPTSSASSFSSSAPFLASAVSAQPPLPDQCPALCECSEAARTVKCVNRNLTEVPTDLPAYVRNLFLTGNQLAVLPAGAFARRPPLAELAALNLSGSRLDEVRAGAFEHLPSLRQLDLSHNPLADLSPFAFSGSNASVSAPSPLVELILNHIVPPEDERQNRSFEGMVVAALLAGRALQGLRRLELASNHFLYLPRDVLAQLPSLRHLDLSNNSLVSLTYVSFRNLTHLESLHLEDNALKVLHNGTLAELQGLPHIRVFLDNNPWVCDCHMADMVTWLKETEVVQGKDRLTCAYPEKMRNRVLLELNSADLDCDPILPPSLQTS
Procedure: as §1

[6] = molecular target: T5, 5T4 on NCI-H226 cells, NCI-H2030 cells and HCC827 cells (UniProt Q13641 32-420, limits assumed); test: flow cytometry on NCI-H2030 cells, Alexa Fluor 647 anti-human IgG Fc secondary antibody, MFI
T5 construct: whole, on cells
T5 sequence (looked up): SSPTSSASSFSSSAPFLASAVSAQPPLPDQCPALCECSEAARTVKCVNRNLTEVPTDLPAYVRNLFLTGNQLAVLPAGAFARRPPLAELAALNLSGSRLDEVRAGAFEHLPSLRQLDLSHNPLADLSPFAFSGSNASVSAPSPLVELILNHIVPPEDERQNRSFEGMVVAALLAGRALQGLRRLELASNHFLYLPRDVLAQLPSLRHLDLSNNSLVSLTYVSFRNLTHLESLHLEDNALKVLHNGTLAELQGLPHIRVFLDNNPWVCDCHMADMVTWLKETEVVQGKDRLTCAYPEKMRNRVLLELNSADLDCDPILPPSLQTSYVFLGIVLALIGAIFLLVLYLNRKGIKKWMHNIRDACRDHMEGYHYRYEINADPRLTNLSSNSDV
Procedure: NCI-H226 cells, NCI-H2030 cells or HCC827 cells were plated in a 96-well plate at a density of 2×10⁵ cells/well. Serially diluted purified anti-5T4 antibody 32G1 or the positive control PF06263507 analog-SI (maximum concentration: 20 μg/mL, 2-fold dilutions, 12 gradients) were added to each well and were incubated at 4° C. for 30 minutes. Then, after one wash with PBS, the cells were incubated with the secondary antibody Alexa Fluor® 647 anti human IgG Fcγ (Jackson ImmunoResearch Laboratories, Inc., Cat #: 109-606-170) at 4° C. for 15 minutes before flow cytometry analysis.
The cells were collected, and the mean fluorescence intensity (MFI) was determined.

B1: 32G1 (antibody, V domains shown)
VH: QVQLVQSGGGLVKPGGSLRLSCVASGFTFSDYYMNWVRQAPGKGLEWISYVGTESIYTYYADTVKGRFTISRDNAKNSLYLQMNSLRAEDTALYYCARARDYNLYGMDVWGQGTTVTVSS
VL: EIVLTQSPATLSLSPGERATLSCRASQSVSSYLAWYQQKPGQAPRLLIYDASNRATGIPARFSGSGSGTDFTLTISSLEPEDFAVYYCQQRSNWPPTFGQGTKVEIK
notes: also called anti-5T4 antibody 32G1
In the case of B1, the “Percentage of Positive Cells” value [1] is reported as 27.1%, the “Percentage of Positive Cells” value [2] is reported as 56.3% and the binding ratio (h5T4-His protein [3]) is reported as 0.82. The binding ratio (h5T4-His protein [4]) was 1.03, the “Percentage of Positive Cells” value [5] was 56.5% and the “EC50 (read off the curve)” value [6] was about 0.2 µg/mL.
